Measurements reported in patent US20120094895A1 (MOSAMEDIX B V, published 2012).

Assays:
integrin αvβ3 = biological target: T1, integrin αvβ3 (UniProt P06756 31-1048; P05106 27-788, limits assumed); assay: flow cytometry, fluorescein labeled protein on MCF-7 and THP-1 cells
T1 construct: whole, on cells; Endogenous on MCF-7 and THP-1 cells (human cell lines); also called integrin-receptor

integrin αvβ5 = biological target: T2, integrin αvβ5 (UniProt P06756 31-1048; P18084 24-799, limits assumed); assay: as above
T2 construct: whole, on cells; Endogenous on MCF-7 and THP-1 cells (human cell lines); also called integrin-receptor
T2 sequence (P06756 31-1048 limits assumed, chain 1 of 2): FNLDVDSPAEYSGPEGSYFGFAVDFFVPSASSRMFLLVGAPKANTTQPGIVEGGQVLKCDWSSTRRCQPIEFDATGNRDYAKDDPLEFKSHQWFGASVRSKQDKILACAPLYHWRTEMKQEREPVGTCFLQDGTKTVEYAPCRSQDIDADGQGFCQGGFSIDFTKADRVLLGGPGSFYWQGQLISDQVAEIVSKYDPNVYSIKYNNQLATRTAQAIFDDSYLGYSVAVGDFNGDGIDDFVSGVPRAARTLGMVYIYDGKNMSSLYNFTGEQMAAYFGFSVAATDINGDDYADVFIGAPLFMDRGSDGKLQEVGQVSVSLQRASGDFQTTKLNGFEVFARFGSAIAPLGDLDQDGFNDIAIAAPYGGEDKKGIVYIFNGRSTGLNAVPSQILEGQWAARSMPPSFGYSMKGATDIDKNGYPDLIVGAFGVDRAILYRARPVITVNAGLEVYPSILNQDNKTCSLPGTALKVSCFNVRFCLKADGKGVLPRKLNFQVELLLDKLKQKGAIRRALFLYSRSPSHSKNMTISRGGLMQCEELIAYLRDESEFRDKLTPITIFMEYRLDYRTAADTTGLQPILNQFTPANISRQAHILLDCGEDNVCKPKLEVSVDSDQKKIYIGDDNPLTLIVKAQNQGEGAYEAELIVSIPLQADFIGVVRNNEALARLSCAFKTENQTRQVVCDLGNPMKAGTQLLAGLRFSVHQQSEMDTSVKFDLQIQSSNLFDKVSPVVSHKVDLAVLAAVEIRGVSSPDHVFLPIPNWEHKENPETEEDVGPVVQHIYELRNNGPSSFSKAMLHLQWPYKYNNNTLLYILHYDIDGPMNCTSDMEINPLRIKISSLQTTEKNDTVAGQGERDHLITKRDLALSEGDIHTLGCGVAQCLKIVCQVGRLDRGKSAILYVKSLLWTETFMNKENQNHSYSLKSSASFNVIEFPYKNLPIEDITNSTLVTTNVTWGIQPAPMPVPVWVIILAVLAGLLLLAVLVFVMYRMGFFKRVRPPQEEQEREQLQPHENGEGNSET
T2 sequence (P18084 24-799 limits assumed, chain 2 of 2): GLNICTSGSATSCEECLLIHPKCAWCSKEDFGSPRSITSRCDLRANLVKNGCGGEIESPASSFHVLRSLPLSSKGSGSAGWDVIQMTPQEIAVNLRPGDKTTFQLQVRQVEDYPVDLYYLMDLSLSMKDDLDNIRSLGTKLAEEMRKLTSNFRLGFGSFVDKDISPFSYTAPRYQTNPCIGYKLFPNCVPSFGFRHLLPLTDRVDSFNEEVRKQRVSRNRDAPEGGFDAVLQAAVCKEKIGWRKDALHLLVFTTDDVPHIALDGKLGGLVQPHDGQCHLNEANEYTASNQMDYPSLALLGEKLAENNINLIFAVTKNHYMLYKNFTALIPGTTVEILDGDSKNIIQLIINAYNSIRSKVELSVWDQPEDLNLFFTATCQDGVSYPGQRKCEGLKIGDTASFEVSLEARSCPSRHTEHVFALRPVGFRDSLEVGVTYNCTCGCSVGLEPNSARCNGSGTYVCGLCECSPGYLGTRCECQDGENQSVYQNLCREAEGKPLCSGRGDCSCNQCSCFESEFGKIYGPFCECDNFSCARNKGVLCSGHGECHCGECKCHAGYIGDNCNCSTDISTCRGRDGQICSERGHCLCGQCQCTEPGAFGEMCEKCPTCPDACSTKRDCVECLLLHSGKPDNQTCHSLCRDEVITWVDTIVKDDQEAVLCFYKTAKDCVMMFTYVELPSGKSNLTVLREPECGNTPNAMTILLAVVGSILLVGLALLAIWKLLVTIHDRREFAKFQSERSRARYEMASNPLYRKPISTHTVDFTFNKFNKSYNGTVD

T1 sequence (P06756 31-1048 limits assumed, chain 1 of 2): as the sequence (P06756 31-1048 limits assumed, chain 1 of 2) above
T1 sequence (P05106 27-788 limits assumed, chain 2 of 2): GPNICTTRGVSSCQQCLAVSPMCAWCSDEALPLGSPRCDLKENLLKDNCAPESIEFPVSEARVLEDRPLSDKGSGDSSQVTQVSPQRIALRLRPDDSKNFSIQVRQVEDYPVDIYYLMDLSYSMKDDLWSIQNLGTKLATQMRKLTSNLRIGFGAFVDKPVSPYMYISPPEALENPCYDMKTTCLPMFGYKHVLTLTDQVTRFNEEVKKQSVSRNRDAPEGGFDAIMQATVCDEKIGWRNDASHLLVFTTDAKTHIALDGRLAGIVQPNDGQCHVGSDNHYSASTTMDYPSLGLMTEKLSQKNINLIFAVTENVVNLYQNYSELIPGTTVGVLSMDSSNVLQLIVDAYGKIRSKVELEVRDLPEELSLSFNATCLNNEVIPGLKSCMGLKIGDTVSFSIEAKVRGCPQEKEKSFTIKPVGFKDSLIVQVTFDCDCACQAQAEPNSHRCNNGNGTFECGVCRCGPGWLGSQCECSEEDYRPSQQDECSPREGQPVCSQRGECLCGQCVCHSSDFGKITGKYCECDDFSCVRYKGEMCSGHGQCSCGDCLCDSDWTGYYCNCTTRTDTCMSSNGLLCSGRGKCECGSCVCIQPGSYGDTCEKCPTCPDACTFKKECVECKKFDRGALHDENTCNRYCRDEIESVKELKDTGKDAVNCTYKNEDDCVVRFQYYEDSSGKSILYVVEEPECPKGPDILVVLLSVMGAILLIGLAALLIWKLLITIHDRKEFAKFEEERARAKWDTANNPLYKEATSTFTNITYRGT

B1: annexin A5-T7D variant (other)
chain: AQVLRGDVTDFPGFDERADAETLRKAMKGLGTDEESILTLLTSRSNAQRQEISAAFKTLFGRDLLDDLKSELTGKFEKLIVALMKPSRLYDAYELKHALKGAGTNEKVLTEIIASRTPEELRAIKQVYEEEYGSSLEDDVVGDTSGYYQRMLVVLLQANRDPDAGIDEAQVEQDAQALFQAGELKWGTDEEKFITIFGTRSVSHLRKVFDKYMTISGFQIEETIDRETSGNLEQLLLAVVKSIRSIPAYLAETLYYAMKGAGTDDHTLIRVMVSRSEIDLFNIRKEFRKNFATSLYSMIKGDTSGDYKKALLLLCGEDD
modifications: fluorescein (FITC) label, site not stated
notes: Made in E. coli and purified; also called T7D anxA5; RGD-anxA5
- binding result (integrin αvβ3): binds
- binding result (integrin αvβ5): binds
